B1: Subversion of eukaryotic traffic protein A (Legionella pneumophila subsp. pneumophila), Q5ZU30 (parent)
chain: MYKIYSYLGWRIDMKTENLPQAGQEAQIDKKIHFIWVGHIMPQKNIQVVSEWAEKNPGYETIIWVDKKIAPAKELDLFILDMKSKGITVKDINEEGVCRDSIRHELDQESPNYGMVSDMLRLNILAAEGGIYLDSDILCSAPFPDEIYAPFGFLLSPWSQGANNTLCNDIILCSKGNQIIQQLADAIEQSYIARDSFEFTHEYASMKETKGERIAKTLGVTGPGFLFHQLKKMGILNDKSEMEAIHWELQDQRYLIDGSVKEPDYFYVPQNNTNDASWVPSIKRPGIENMSFQERLENAVQLIAFDIQKTGLFNLDHYANELKVKQNSWCIAAETSPELKPDSYLLIRPRDKTGEWTLYYVDEDKKLNPVTLPVIKGAIKLSEVSDPLRKFHTLLSQVSDPVNPTAHELKQIGRALIELKPRQDEWHCKNKWSGAEEIAQELWQRITSNETLRAQIKQCFTQFESLKPRVAELGLTRASGAGTEVEAHESTVKEQEIISQNTVGEEGTKEKNSVQLASENSSDEKIKTAHDLIDEIIQDVIQLDGKLGLLGGNTRQLEDGRVINIPNGAAMIFDDYKKYKQGELTAESALESMIKIAKLSNQLNRHTFFNQRQPETGQFYKKVAAIDLQTTIAAEYDNNHGLRI

Variants of: B1
Conditions: with rab1a_human RAB1A

Row | Variant | effect of a mutation on the interaction
1 | D134A;D136A | disrupting interaction

Variants of: B1
Conditions: with rab7a_human RAB7A

Row | Variant | effect of a mutation on the interaction
2 | D134A;D136A | disrupting interaction

Reference: IntAct's records for PubMed 30323948
